target: SP1 (recombinant, purified, Promega) (UniProt P08047 2-785); test: EMSA
Sequence (P08047 2-785): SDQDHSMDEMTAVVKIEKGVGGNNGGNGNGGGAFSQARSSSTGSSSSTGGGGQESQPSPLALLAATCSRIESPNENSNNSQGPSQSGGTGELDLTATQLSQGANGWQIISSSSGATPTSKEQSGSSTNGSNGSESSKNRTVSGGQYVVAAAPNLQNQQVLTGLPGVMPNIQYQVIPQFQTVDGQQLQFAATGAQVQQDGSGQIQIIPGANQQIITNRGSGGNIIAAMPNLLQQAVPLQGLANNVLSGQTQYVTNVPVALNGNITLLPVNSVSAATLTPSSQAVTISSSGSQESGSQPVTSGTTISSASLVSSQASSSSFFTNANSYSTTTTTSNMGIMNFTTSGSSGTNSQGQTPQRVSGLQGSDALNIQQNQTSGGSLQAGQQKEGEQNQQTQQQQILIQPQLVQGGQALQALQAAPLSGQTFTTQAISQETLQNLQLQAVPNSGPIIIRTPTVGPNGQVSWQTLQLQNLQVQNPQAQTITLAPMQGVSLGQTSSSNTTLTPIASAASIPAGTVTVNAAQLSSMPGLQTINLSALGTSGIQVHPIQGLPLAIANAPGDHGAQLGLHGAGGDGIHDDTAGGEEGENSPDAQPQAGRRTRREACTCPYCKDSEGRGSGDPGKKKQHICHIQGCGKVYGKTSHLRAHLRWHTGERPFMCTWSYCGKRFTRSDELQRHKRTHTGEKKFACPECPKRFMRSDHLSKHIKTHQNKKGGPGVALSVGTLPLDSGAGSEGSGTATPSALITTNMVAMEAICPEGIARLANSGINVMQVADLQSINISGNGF

Row | Binder | binding result
1 | Sp1 (-346) unmethylated (Sp1-1) (dsDNA) DNA 1: TCCACCCTCCGCCCCGCGCCGTCC DNA 2: GGACGGCGCGGGGCGGAGGGTGGA | binds
2 | Sp1 (-346) methylated (Sp1-1 M) (dsDNA, 5-methylcytosine (printed mC): strand 1 C10,C15,C17,C20,C24; strand 2 C4,C7,C9,C14) DNA 1: TCCACCCTCCGCCCCGCGCCGTCC DNA 2: GGACGGCGCGGGGCGGAGGGTGGA | no binding
3 | Sp1 (-268) unmethylated (Sp1-2) (dsDNA) DNA 1: TTCTCGTCCCCGCCCCGTCCCGCC DNA 2: GGCGGGACGGGGCGGGGACGAGAA | binds
4 | Sp1 (-268) methylated (Sp1-2 M) (dsDNA, 5-methylcytosine (printed mC): strand 1 C5,C11,C16,C21,C24; strand 2 C3,C8,C13,C19) DNA 1: TTCTCGTCCCCGCCCCGTCCCGCC DNA 2: GGCGGGACGGGGCGGGGACGAGAA | no binding

— paper PMC2710387
